This test concerns the target recombinant yeast TBC-DEG (TBCD, TBCE, Arl2) (yeast) (UniProt P40987). The test can be described thus: SEC.

recombinant yeast TBC-DEG (TBCD, TBCE, Arl2) (yeast), sequence (P40987 whole entry, chain 1 of 3): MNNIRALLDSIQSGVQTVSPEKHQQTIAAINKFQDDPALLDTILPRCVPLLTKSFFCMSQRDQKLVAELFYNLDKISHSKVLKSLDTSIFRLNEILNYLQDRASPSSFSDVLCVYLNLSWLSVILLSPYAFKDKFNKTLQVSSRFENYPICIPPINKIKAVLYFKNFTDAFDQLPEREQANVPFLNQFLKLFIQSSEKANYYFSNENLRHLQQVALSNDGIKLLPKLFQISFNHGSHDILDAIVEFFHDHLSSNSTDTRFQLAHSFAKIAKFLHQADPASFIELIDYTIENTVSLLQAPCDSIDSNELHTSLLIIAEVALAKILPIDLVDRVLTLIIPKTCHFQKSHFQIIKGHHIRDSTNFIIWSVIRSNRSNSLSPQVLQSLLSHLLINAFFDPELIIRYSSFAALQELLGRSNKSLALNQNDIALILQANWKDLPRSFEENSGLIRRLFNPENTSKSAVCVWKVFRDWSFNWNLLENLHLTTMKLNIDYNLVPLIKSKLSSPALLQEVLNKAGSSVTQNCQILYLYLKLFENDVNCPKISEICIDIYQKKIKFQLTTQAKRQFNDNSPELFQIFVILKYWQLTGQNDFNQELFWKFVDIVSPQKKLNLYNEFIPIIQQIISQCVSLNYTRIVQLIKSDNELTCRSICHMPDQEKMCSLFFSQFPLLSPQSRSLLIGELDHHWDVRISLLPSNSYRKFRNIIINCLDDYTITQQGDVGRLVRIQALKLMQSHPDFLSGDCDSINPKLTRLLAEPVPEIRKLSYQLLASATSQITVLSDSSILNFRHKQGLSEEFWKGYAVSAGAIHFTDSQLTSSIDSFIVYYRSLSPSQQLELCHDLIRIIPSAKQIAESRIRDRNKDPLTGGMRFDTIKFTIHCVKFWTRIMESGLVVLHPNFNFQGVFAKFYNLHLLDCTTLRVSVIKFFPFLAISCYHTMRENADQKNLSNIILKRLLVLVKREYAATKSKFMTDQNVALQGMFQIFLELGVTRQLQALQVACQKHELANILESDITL
recombinant yeast TBC-DEG (TBCD, TBCE, Arl2) (yeast), sequence (P39937 whole entry, chain 2 of 3, further chain): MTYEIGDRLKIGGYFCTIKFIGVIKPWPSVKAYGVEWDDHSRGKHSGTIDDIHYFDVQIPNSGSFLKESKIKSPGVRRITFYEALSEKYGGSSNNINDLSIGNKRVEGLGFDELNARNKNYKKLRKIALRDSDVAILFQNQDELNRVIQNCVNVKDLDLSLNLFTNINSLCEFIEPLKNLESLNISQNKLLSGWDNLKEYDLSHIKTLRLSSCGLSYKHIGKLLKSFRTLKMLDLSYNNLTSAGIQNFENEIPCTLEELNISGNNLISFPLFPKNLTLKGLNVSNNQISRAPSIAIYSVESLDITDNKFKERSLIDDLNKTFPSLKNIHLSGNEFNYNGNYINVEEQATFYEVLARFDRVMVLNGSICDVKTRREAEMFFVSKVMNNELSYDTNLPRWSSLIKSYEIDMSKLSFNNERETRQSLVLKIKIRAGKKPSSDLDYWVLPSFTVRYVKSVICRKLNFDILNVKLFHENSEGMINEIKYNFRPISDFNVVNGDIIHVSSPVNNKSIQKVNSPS
recombinant yeast TBC-DEG (TBCD, TBCE, Arl2) (yeast), sequence (P39110 whole entry, chain 3 of 3, further chain): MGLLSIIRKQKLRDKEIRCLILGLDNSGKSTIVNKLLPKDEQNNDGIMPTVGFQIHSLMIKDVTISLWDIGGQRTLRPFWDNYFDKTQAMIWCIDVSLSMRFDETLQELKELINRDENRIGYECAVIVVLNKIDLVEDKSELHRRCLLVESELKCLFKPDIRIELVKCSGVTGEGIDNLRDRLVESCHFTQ

As to “porcine brain αβ-tubulin heterodimer (from UniProt P02550 1-451; P02554 1-445) (complex)”, the stoichiometry N was 1.

The values above are taken from article doi:10.1101/2024.01.29.577855.
